The values below come from publication PMC2562697.

The data set deals with MutSα subunit MSH2-His6;MutSα subunit MSH6 (human;human, UniProt P43246;P52701 1-934;1-1360, |). Description: EMSA. In general terms: Mobility shift assays separate free from complexed probe on a gel.

B1: G:T mismatch 35 bp (dsDNA)
DNA 1: GTGGATCCCCCGGGCTGCGGGAATTCGATATCAAG
DNA 2: CTTGATATCGAATTCCTGCAGCCCGGGGGATCCAC
For B1, the binding result was “binds”.
